Experimental data reported in article PMC6851296, “Atomic-resolution crystal structures of the immune protein conglutinin from cow reveal specific interactions of its binding site with N-acetylglucosamine” (The Journal of Biological Chemistry, 2019).

Target: the molecule itself
Experiment: SEC; Superdex-75 HR 10/300, Tris buffer with 10 mM EDTA, 1 ml/min; calibrated with alcohol dehydrogenase, BSA, carbonic anhydrase and cytochrome C; nondissociating conditions

B1: recombinant fragment of bovine conglutinin consisting of the CRD and neck regions (rfBC, residues 199-351 of native conglutinin) (domain or fragment)
chain: GSAEANALKQRVTILDGHLRRFQNAFSQYKKAVLFPDGQAVGEKIFKTAGAVKSYSDAEQLCREAKGQLASPRSSAENEAVTQMVRAQEKNAYLSMNDISTEGRFTYPTGEILVYSNWADGEPNNSDEGQPENCVEIFPDGKWNDVPCSKQLLVICEF
notes: vector-derived first five residues (GLAEV in conglutinin); bovine conglutinin, neck plus carbohydrate recognition domain, the C-terminal 153 residues Asn-199 to Phe-351; also called trimeric recombinant neck plus CRD conglutinin fragment; recombinant homotrimeric fragment of conglutinin
stoichiometry N: 3
